# T1: ceNXT1 (residues 2-137), His6, pETDuet-1 construct for structural studies (Caenorhabditis elegans, UniProt Q9U757 2-137, SeMet-labeled (selenomethionine))
# T1 sequence (looked up): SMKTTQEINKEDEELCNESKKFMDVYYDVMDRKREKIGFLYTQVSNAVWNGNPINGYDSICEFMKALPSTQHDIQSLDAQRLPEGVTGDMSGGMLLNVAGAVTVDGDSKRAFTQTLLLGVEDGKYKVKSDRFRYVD
# Columns and labels:
# [1] = target: ceNXT1, His6, pET28b construct for pull-down assays (Caenorhabditis elegans) (UniProt Q9U757); test: SEC
# [2] = target: T1, ceNXT1 (residues 2-137), His6, …; test: SEC
stoichiometry N [1],stoichiometry N [2],Molecule
1,,ceNXF1(NTF2) (from UniProt Q9XVS7 352-539) (domain or fragment)
,1,"ceNXF2(NTF2) (domain or fragment, Caenorhabditis elegans, UniProt Q9XVS8 202-405, looked up) FRNGYYGSDEVRTLVEEFIITYYKIYDGADGQQTRKQLLDAYDTNNSTFTHTVVCLWDPIKFVMYPDSESYRMYLRTSHNVLNQEYFAANRASRISHGAMDIVVALSRLPATIHLMDTFVVDVFLVSATLLGFTLHGTFRDGPSAIKPENTEEHDNYFTRTFMVAPRGEGKVAIVSDQLFISSMSKRRGDQYRMLVETATDIDQ"
